{"source": "patent US11340238B2", "about": "(Biocon Limited, priority 2015, dated 2022)", "origin": "cited, not measured here", "conditions": "Type 1 Diabetes Mellitus patients on RHI therapy", "data": [{"substance": "recombinant Human insulin [RHI]", "values": [{"measurement": "Cmax", "value": "~100", "unit": "mU/L"}]}]}
